# Results as given in the supplement of paper PMC12636428.
# System: Saccharomyces cerevisiae
# Assay: transcriptional activation domain activity (GFP:mCherry ratio, weighted mean of sorted bins, harmonized to initial dataset scale) (arbitrary fluorescence ratio units); higher = stronger transcriptional activation
# Settings: beta-estradiol 1 µM; induction time 4 h
# Summary of the method: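 Each value is an activation activity: the read-weighted mean of bin median fluorescence, averaged across barcodes, then mapped linearly to the initial dataset scale. The tiles, fused to an estradiol-inducible synthetic transcription factor, sat at the yeast URA3 locus in GFP-reporter diploids. Cells spent 4 hours at 30 °C in SC with 1 uM beta-estradiol before sorting into 8 GFP:mCherry bins, and tiles below 50 reads were removed.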
row,Sequence,transcriptional activation domain activity
1,QHMAQSAQSVMGLEDHNAYGDPDSASRKRSKVSRACDECRRKKVRPRRPANGV,25800
2,GDEEREQRKKHKKRKDRGSDDEDRHHKHKHKKDKHREKGTKDSKKHRGNEPSS,64300
3,MINKKTNPCKILFDPFSSFLFGNLILLSLFLFVDVIFSLPCFLYVCFVFFPSL,69200
4,ISLVYGVRLAIRSSIFVTVRTHLARSIRYQSGLRAKQPIPTRLFLLYFLQLKY,56900
5,LNTFLDSFIFQLFPMVADLWIAAAYFFLYFDAFYSLIIIATTWLYIYITIYMA,58800
6,EEEGNSRRKRRHRDDRDSRERDERGRDRDRERRRHRRDSSRSRDASEEERGHK,13400
7,FFFFVIFSLFHLPFACIFRFFPNDLFACYLYSPFFFPIDFCPFALFPPFFLSF,59500
8,EALPDDLYFTDFVSPFTAAATTSVTTKTVKDTTPATNHMDDDIAMFDSLATTQ,47700
9,CFCCNYFKVPLFCCSLSLYQTIRFFLIFLLLLLQRPSFSVFLVNSILLRFFPL,37600
10,MLLNVFFFFPSSILGSFLYTDLFYFGFFSLIMLFPFKLPCIQPTFFFFTPSFI,44500
11,SLEAWVPSVKLMMHDRSGLSRDGRTAVYHLIALTLRYSEIYVEQILVLWKGLV,44200
12,GQLLVALAREAFTLVTWRTTLQGKLEVEIFPPSDLLLNRYMWYVLHLLDHTSL,13100
13,RAGGRGREKKKEAEGPKKRRRKGAGGGDGQRARRKDKGRRRGEIARTAEGRNG,20500
14,MLINKLIVLRELCYSDDAAKQIVMYVISLFLSLIFYSFLPCLGLICLSILVPS,49100
15,TKAATGGTASSSKPQLAVQKKQQPAEGKKQPVTQKLPPAAAQKLQQKAPATAA,29300
16,DEDPAKKGKKKASEPAATKVKAARGRKSKAAATEGSEAGPSKPPAKGRGKKAA,15800
17,EGLYKCRYGSYFIELSRYSFFFAMFLFFLRAGWYPFSAFWLGCFWHQLVFTAH,40800
18,RMIGLPILLWLGTLTCQIGLLVLLRSVVFGQTNSGNVLPWGLGFWALTISTNI,71800
19,PVAPPAASQPHPTANTMQATHAPPSSGRRRGRPKGSKNKPKPEAPTGPEASAG,6790
20,MPDVWLSWLVLSFAPSPPFHHFLWFWFCLIAWFIFFRPITWTFDTLFWFLFLP,43400
21,EDGDVDMGEADDKPAEPEAEIKTEEVETAAAPEPETEPKSTPAVPAAAAAAAA,24500

row,Sequence,transcriptional activation domain activity
1,GWFYFNVLRHAELMVFTIFSPEHVTIWALRQHSVARLIRALCPEKLSMSHGFL,32400
2,SGDADEDGNGHGTHCSGTIAGKKYGVAKKAHVYAVKVLRSNGSGSMSDVVKGV,9640
3,MSNLELMRFLTKPDVKLELSVKIDDIYWNCIFSLRYREMYTASLLRYMVFFLR,52700
4,MPNKLVYEICFVHLTINCLCRGCLMYCALYIILIIKYHNHLLYFIFFNFMAIP,38200
5,WLMYYIHATGDTKVSLPFNPSRVIKINMVLLSHLVAWINYLPLVVSYVHWRYW,51000
6,PSEKPANGAKGKGGKPRGKSGEKDNGAAEFGADPKNADKKSSNESSGAKSRPK,37900
7,PPPARAARPARRRGRGCQRRMSSRLCRGREGGGGGGVRLPVQVGVVMVVQLGR,73100
8,PAPAAERREFEEELEARAPGGRGGFRGPRGGPRGPAPAPAPPAAERREFIEDL,28600
9,MGSCNLPFGHISLARGTLVLIRGWSFFLASQPPYGFIRWILFRSSFYFLCSWR,55900
10,AKDGELQTKKPRQRKPKAPAATGDADILEVKPKRTRTTRPKVSSYFAEPAAPL,< 6570
11,VPSSIPRARRLQTAMVAIWSTSIVTTFALTLFLCSFPPLWPFMLMYVIWLNYI,49000
12,RRAVRPADADEREAVARVRPRARRRLGDVRDELDPRRGRRRVHGRIWGGVVRL,68000
13,MVHFLVTLPYFILQCLTWLLRFHFFLPCLTFLLCFHLFFGTSLLLSFSMFSWA,50300
14,VDRSHLELIFGLPIWRLSGILVQTVWYVFQTGFSTLLSLCLFLVSAKRWIVWR,52400
15,DNLDLASLDPLEQSPSISMEPVSINETGSAYTTTNTALNDIDIPFSINELNEL,64900
16,RFGGSARGGGTGVEPPAKGKKGGGEEREGGEGRKGKGGRGPGTRERKGKERER,< 6570
17,MRDGKQGMREKKRKEEGESKSEKKNGKGGRMGKRGGKGKGRKREEQRRVGIEK,28100
18,MNLSRVFLKVRAIAFSCISLLSFLWIILLCLMLYYRWDESDHSEHSLLIILLL,45100
19,SPLNSFDRSFYPIGCTNLSNDIPGYSFLNDAMSEIHTFGDFNGELDSTFLEFS,131000
20,SPSPSTTATPPASPSPPSRTKSTPRASSRSACAPSVTTPAGRPRSCARSGPRC,38000
21,RYIATGRGFATTRISFSILFSRFAGPSIYLGMRTLLMLLYVTLSFWTPYLIYF,54700

row,Sequence,transcriptional activation domain activity
1,RRRRKARSARLKKAEKTAAAVGQEAKPKAENAEGASVPPRRKRRRARSRKPKK,28100
2,KKKSSGRKSGSKGVGRLGSGSEETDEDESSRGSGSEAGRSSKDKKGKSRSNVE,39900
3,VGAVMVRGQDYVPAFDVAPDWESYDYAKLDPTNDDDKEFINNMWAWDKPVSVN,57300
4,VSPQIYYGSRLLGSGGLGLYFLRLPSLPCRTVVEILNTFLFFVMISYLQILLY,46400
5,MDTTDASRGRSKACTYCNKSKTKCMWAGEPGAGACQRCTRLRRSCILPEKGER,10200
6,AKAAEAVVAPEADAEKAEEAVVEKPKSTKGRKRKADEEDAEEVAAEANGAEAA,28200
7,FSTSLTSWSTSLNLLFFYMTWSTLVLSHSPLRIELIGITAIRTVLWLIPSLVF,63100
8,AETKCEGATTNHMKVEKREKKKRGEKAADKSKEERRSKRKEKQRKEGKTVRNG,6970
9,IGENDTVDGKRFCTFYPQYREGRVRVNLGVTRLSFRAFYICPLAFTIARYLLN,67400
10,RQNEKTETGKAEARTRRETGARKEHAKSGDRNAKENRNGERKQREHEKDKDGG,26000
11,GRRRRKGEESRGRKNAEERKGGRKEGPGAGRVEAEGRAEATRTEKGEEGGSGG,34800
12,KGRSRENSRQRGNEDRVARGRDESRSRKTGGREASEDRGRSISRQWTPKPAKR,22600
13,YVGRSVLIHQSHGSFEILILWNHYPLLCFFFCHGRRRVFSARLSLLLFCLCRF,54700
14,KKNRHGKFAYSDRYNLSEYIIEQLSEYDDIDLVKPWHRKLMLLHPFVILWVFF,60600
15,MCACRLFNQICFINKPCRIVNLSISIVYINWGMLLCVMRSDVLSLYLLIMLPV,80000
16,RSPRRQTQSSSTTPPARKTPTQTTKTHRTTSPTTRSSCRRASGRQTAPTHSSC,43100
17,SSPVVVSKIEDKNTEDKGADVKKTEESKKEEKTEVKQESKPEEKAEAKSEEKK,29300
18,ADSRRKTRRVRKRKSSRRHQEEGEEEESESEEEEADARKRRKKEKGGGKDKKK,23600
19,FLAAVTCLLCVIGIFICLLFHANPYLRLIPLLIMIQSICFVLFSHFGLCLYRL,39400
